Source: patent publication US7842469B2, “Bioluminescence resonance energy transfer (BRET) systems and methods of use thereof” (Stanford University, priority 2005, dated 2010)

Experiments:
[1] = Luciferase activity of purified RLuc mutants (light output integrated over 10 s, luminometer); assay type: biochemical; settings: for Activity (relative to RLuc) bc: benzyl-coelenterazine; for Activity (relative to RLuc) bc / Activity (relative to RLuc) bdc / Activity (relative to RLuc) cp / Activity (relative to RLuc) n / Activity (relative to RLuc) native: relative to native enzyme; for Activity (relative to RLuc) bdc: bisdeoxycoelenterazine; for Activity (relative to RLuc) cp: coelenterazine-cp; for Activity (relative to RLuc) n: coelenterazine-n; for improvement in light output (activity) compared to native RLuc / Activity (relative to RLuc) native: native coelenterazine
Text: Luminometer Calibration: Light measurements were made using a Turner 20/20 and later a Turner 20/20n luminometer (Turner Designs, Sunnyvale, Calif.). The luminometers were calibrated to absolute units (photons/s) using the luminol light standard performed in dimethyl sulfoxide (DMSO). No corrections were applied for the spectral sensitivity of the luminometer, as the spectral peak of luminol chemiluminescence in DMSO (486 nm) is close to the spectral peak of Renilla Luciferase bioluminescence (482 nm).
Characterization of Renilla Luciferase Mutants: Luciferase activity was measured by adding 1 μl of sample (diluted as necessary in EB containing 1% HSA) to 100 μl room temperature 100 mM sodium phosphate buffer (pH 7), manually adding 1 μl of 0.5 μg/μl coelenterazine or analog, manually mixing, and reading for 10 s in a luminometer. The time between the addition of the luciferin and the start of measurement was approximately 4 s.

[2] = Serum stability in mouse serum at 37° C.; assay type: in vitro ADME; settings: for Serum τ1/2 (h) mouse: 37° C., mono-exponential fit; for stability (lability) compared to the native enzyme: murine serum
Description: (§1) Serum stability measurements were done by mixing 0.5 μl dilute Luciferase with either 20 μl mouse serum or 50 μl rat serum (Equitech-Bio, Kerrville, Tex.) placing the sample in a 37° C. incubator, and removing aliquots for activity testing. To calculate serum half-lives, mono-exponential decay curves were fit to the serum stability data using a Nelder/Mead Simplex non-linear least squares minimization algorithm provided by the Octave numerical programming language. Emission spectra at ambient temperature were measured using a Triax 320 (Horiba Jobin Yvon, Edison, N.J.), which incorporates an optical grating device with a liquid N2 cooled CCD detector.

[3] = Serum stability in rat serum at 37° C.; assay type: in vitro ADME; settings: mono-exponential fit
Description: as §1

[4] = Bioluminescence emission spectra; assay type: physicochemical; settings: emission spectrum with native coelenterazine
Description: as §1

| Activity (relative to RLuc) bc [1] | Activity (relative to RLuc) bdc [1] | Activity (relative to RLuc) cp [1] | Activity (relative to RLuc) n [1] | improvement in light output (activity) compared to native RLuc [1] | Activity (relative to RLuc) native [1] | Molecule | Serum τ1/2 (h) mouse [2] [h] | stability (lability) compared to the native enzyme [2] | stability (lability) compared to the native enzyme ([2]; listed as double mutant) | Serum τ1/2 (h) rat [3] [h] | Wavelength (nm) mean [4] [nm] | Wavelength (nm) peak [4] [nm] |
| --- | --- | --- | --- | --- | --- | --- | --- | --- | --- | --- | --- | --- |
| 2.7 | 20 | 14 | 7.1 | 5 fold | 4.8 | M185V/Q235A: destabilized RLuc double mutant M185V/Q235A for use as a reporter gene (protein, Chemically synthesized Renilla Luciferase, destabilized RLuc double mutant M185V/Q235A for use as a reporter gene) MASKVYDPEQRKRMITGPQWWARCKQMNVLDSFINYYDSEKHAENAVIFLHGNAASSYLWRHVVPHIEPVARCIIPDLIGMGKSGKSGNGSYRLLDHYKYLTAWFELLNLPKKIIFVGHDWGACLAFHYSYEHQDKIKAIVHAESVVDVIESWDEWPDIEEDIALIKSEEGEKMVLENNFFVETVLPSKIMRKLEPEEFAAYLEPFKEKGEVRRPTLSWPREIPLVKGGKPDVVAIVRNYNAYLRASDDLPKMFIESDPGFFSNAIVEGAKKFPNTEFVKVKGLHFSQEDAPDEMGKYIKSFVERVLKNEQ | 0.5 | half the stability | twice the lability | 0.2 | – | – |
| 2.6 | 20 | 12 | 4.1 | about 4 fold | 4.4 | M185V: destabilized RLuc single mutant M185V (without C124A) (protein, Chemically synthesized Renilla Luciferase) MASKVYDPEQRKRMITGPQWWARCKQMNVLDSFINYYDSEKHAENAVIFLHGNAASSYLWRHVVPHIEPVARCIIPDLIGMGKSGKSGNGSYRLLDHYKYLTAWFELLNLPKKIIFVGHDWGACLAFHYSYEHQDKIKAIVHAESVVDVIESWDEWPDIEEDIALIKSEEGEKMVLENNFFVETVLPSKIMRKLEPEEFAAYLEPFKEKGEVRRPTLSWPREIPLVKGGKPDVVQIVRNYNAYLRASDDLPKMFIESDPGFFSNAIVEGAKKFPNTEFVKVKGLHFSQEDAPDEMGKYIKSFVERVLKNEQ | 0.8 | – | – | 0.3 | – | – |
| 0.00 | 0.00 | 0.00 | 0.00 | – | 0.00 | C124A/F261L/F262L: RLuc mutant C124A/F261L/F262L (protein) MASKVYDPEQRKRMITGPQWWARCKQMNVLDSFINYYDSEKHAENAVIFLHGNAASSYLWRHVVPHIEPVARCIIPDLIGMGKSGKSGNGSYRLLDHYKYLTAWFELLNLPKKIIFVGHDWGAALAFHYSYEHQDKIKAIVHAESVVDVIESWDEWPDIEEDIALIKSEEGEKMVLENNFFVETMLPSKIMRKLEPEEFAAYLEPFKEKGEVRRPTLSWPREIPLVKGGKPDVVQIVRNYNAYLRASDDLPKMFIESDPGLLSNAIVEGAKKFPNTEFVKVKGLHFSQEDAPDEMGKYIKSFVERVLKNEQ | – | – | – | – | – | – |

More lines, now with the values behind:

| Molecule | Activity (relative to RLuc) bc [1] | Activity (relative to RLuc) bdc [1] | Activity (relative to RLuc) cp [1] | Activity (relative to RLuc) n [1] | improvement in light output (activity) compared to native RLuc [1] | Activity (relative to RLuc) native [1] | Serum τ1/2 (h) mouse [2] [h] | stability (lability) compared to the native enzyme [2] | stability (lability) compared to the native enzyme ([2]; listed as double mutant) | Serum τ1/2 (h) rat [3] [h] | Wavelength (nm) mean [4] [nm] | Wavelength (nm) peak [4] [nm] |
| --- | --- | --- | --- | --- | --- | --- | --- | --- | --- | --- | --- | --- |
| A54P/A55T/C124A: RLuc mutant A54P/A55T/C124A (protein) MASKVYDPEQRKRMITGPQWWARCKQMNVLDSFINYYDSEKHAENAVIFLHGNPTSSYLWRHVVPHIEPVARCIIPDLIGMGKSGKSGNGSYRLLDHYKYLTAWFELLNLPKKIIFVGHDWGAALAFHYSYEHQDKIKAIVHAESVVDVIESWDEWPDIEEDIALIKSEEGEKMVLENNFFVETMLPSKIMRKLEPEEFAAYLEPFKEKGEVRRPTLSWPREIPLVKGGKPDVVQIVRNYNAYLRASDDLPKMFIESDPGFFSNAIVEGAKKFPNTEFVKVKGLHFSQEDAPDEMGKYIKSFVERVLKNEQ | 0.15 | 0.22 | 0.11 | 0.38 | – | 0.21 | 119 | – | – | 129 | 483 | 470 |
| F33R/I34M/C124A: RLuc mutant F33R/I34M/C124A (protein) MASKVYDPEQRKRMITGPQWWARCKQMNVLDSRMNYYDSEKHAENAVIFLHGNAASSYLWRHVVPHIEPVARCIIPDLIGMGKSGKSGNGSYRLLDHYKYLTAWFELLNLPKKIIFVGHDWGAALAFHYSYEHQDKIKAIVHAESVVDVIESWDEWPDIEEDIALIKSEEGEKMVLENNFFVETMLPSKIMRKLEPEEFAAYLEPFKEKGEVRRPTLSWPREIPLVKGGKPDVVQIVRNYNAYLRASDDLPKMFIESDPGFFSNAIVEGAKKFPNTEFVKVKGLHFSQEDAPDEMGKYIKSFVERVLKNEQ | 0.15 | 0.20 | 0.16 | 0.12 | – | 0.15 | 0.3 | – | – | 0.3 | 497 | 481 |
| E44G/C124A: RLuc mutant E44G/C124A (protein) MASKVYDPEQRKRMITGPQWWARCKQMNVLDSFINYYDSEKHAGNAVIFLHGNAASSYLWRHVVPHIEPVARCIIPDLIGMGKSGKSGNGSYRLLDHYKYLTAWFELLNLPKKIIFVGHDWGAALAFHYSYEHQDKIKAIVHAESVVDVIESWDEWPDIEEDIALIKSEEGEKMVLENNFFVETMLPSKIMRKLEPEEFAAYLEPFKEKGEVRRPTLSWPREIPLVKGGKPDVVQIVRNYNAYLRASDDLPKMFIESDPGFFSNAIVEGAKKFPNTEFVKVKGLHFSQEDAPDEMGKYIKSFVERVLKNEQ | 0.78 | 0.98 | 0.74 | 0.66 | – | 0.94 | 2.6 | – | – | 3.3 | 502 | 486 |
| A54G/A55G/C124A: RLuc mutant A54G/A55G/C124A (protein) MASKVYDPEQRKRMITGPQWWARCKQMNVLDSFINYYDSEKHAENAVIFLHGNGGSSYLWRHVVPHIEPVARCIIPDLIGMGKSGKSGNGSYRLLDHYKYLTAWFELLNLPKKIIFVGHDWGAALAFHYSYEHQDKIKAIVHAESVVDVIESWDEWPDIEEDIALIKSEEGEKMVLENNFFVETMLPSKIMRKLEPEEFAAYLEPFKEKGEVRRPTLSWPREIPLVKGGKPDVVQIVRNYNAYLRASDDLPKMFIESDPGFFSNAIVEGAKKFPNTEFVKVKGLHFSQEDAPDEMGKYIKSFVERVLKNEQ | 0.10 | 0.19 | 0.06 | 0.15 | – | 0.12 | 2.4 | – | – | 3.0 | 492 | 476 |
